Article doi:10.1101/2025.04.23.650119

Molecular target: α-conotoxin ImII (Conus imperialis)
Test: cryo-EM structure

α-conotoxin ImII (peptide)
stoichiometry N: 2
